What was measured:
Pin1 (HA-Pin1, GST-Pin1) [1] = target: Pin1 (HA-Pin1, GST-Pin1) (UniProt Q13526); test: co-IP of HA-Pin1 with Myc-Kv4.2; settings: reference: wild type; sites T607
Pin1 (HA-Pin1, GST-Pin1) [2] = target: Pin1 (HA-Pin1, GST-Pin1) (UniProt Q13526); test: Affi-Gel peptide pulldown from lysate

Substance: Kv4.2 (Myc-Kv4.2; synthetic C-terminal peptides) (from UniProt Q9NZV8) T607A
- binding against the reference (Pin1 (HA-Pin1, GST-Pin1) [1]): weaker

Substance: Kv4.2 (Myc-Kv4.2; synthetic C-terminal peptides) (from UniProt Q9NZV8) pT602 peptide
- binding against the reference (Pin1 (HA-Pin1, GST-Pin1) [2]; reference: non-phospho peptide, sites T602): stronger

Substance: Kv4.2 (Myc-Kv4.2; synthetic C-terminal peptides) (from UniProt Q9NZV8) pT602, pT607 peptide
- binding against the reference (Pin1 (HA-Pin1, GST-Pin1) [2]; reference: non-phospho peptide, sites T602,T607): stronger
- binding against the reference (Pin1 (HA-Pin1, GST-Pin1) [2]; reference: pT607 peptide, sites T602): stronger

Substance: Kv4.2 (Myc-Kv4.2; synthetic C-terminal peptides) (from UniProt Q9NZV8) pT607 peptide
- binding against the reference (Pin1 (HA-Pin1, GST-Pin1) [2]; reference: non-phospho peptide, sites T607): stronger
